Measured values: US20190269666A1 (Eli Lilly, published 2019)

How the values were obtained:
[1] = molecular target: T1, biotinylated PD-L1-Fc fusion protein (Homo sapiens (Human), UniProt Q9NZQ7 19-238, limits assumed, biotinylated (sites not given)); assay: blocking ELISA: antibody premixed with biotinylated PD-L1-Fc (100 ng/well), plate coated with PD-1-Fc (1 ug/ml)
T1 construct: not shown: Fc part

[2] = molecular target: T1, biotinylated PD-L1-Fc fusion protein; assay: blocking ELISA: antibody premixed with biotinylated PD-L1-Fc, plate coated with B7-1-Fc (1 ug/ml, R&D Systems)
[3] = molecular target: T2, cynomolgus monkey PD-L1-Fc fusion protein (cynomolgus monkey); assay: SPR (Biacore T200), antibody immobilized, PD-L1-Fc as analyte, 37 C, 1:1 model
T2 construct: Soluble analyte in SPR; also called Cyno PD-L1
Description: (§1) Immobilization of antibodies of the present invention as ligand on to sensor chip surface is performed at 25° C. […] The analysis is performed at 37° C. The contact time for each sample is 180 seconds at 30 μL/minute. The dissociation time was 240-1500 seconds. The immobilized surface is regenerated for 18 seconds with 0.95 M NaCl/25 mM NaOH at 30 μL/minute, and then stabilized for 30 seconds. Binding kinetics are analyzed using the Biacore T200 Evaluation software (Version 3.0). Data are referenced to a blank flow cell, and the data are fit to a 1:1 binding model.

[4] = molecular target: T3, human PD-L1-Fc fusion protein (human, UniProt Q9NZQ7 19-239); assay: as above
T3 construct: treated as one molecule; also called soluble human PD-L1-Fc fusion protein; human PD-L1-Fc (R&D Systems); not shown: Fc part
Description: as §1

[5] = molecular target: T3, human PD-L1-Fc fusion protein; assay: ELISA, plate coated with human PD-L1-Fc (R&D Systems), anti-human IgG F(ab')2-HRP detection
Description: Wells are blocked for 2 hours with blocking buffer (PBS containing 5% nonfat dry milk). Wells are washed three times with PBS containing 0.1% TWEEN®-20. […] After washing, the plate is incubated with 100 μL of goat anti-human IgG F(ab′)2-HRP conjugate (Jackson Immuno Research) at room temperature for 1 hour. The plates are washed and then incubated with 100 μL of 3,3′, 5,5′-tetra-methylbenzidine. The absorbance at 450 nm is read on a microplate reader. The half maximal effective concentration (EC₅₀) is calculated using GraphPad Prism 6 software.

[6] = molecular target: T4, cell surface PD-L1 on MDA-MB231 cells (human, UniProt Q9NZQ7 19-290); assay: flow cytometry on MDA-MB231 cells, biotinylated antibody, streptavidin-PE detection
T4 construct: Endogenous PD-L1 of the human cell line; also called cell surface expressed human PD-L1; MDA-MB 231 cells (PD-L1-positive human breast adenocarcinoma cell line)
Description: Plate are centrifuged at 1200 rpm for 5 minutes and supernatant removed. 100 μL of antibody-biotin (serially diluted by 1:4 starting from 10 μg/ml) is added. A total of 6 serial dilutions are evaluated. After incubation at 4° C. for 30 minutes, cells are washed twice with DPBS. 100 μL of detection buffer containing 5 μL streptavidin-PE is added. After incubation at 4° C. for 30 more minutes, plate is centrifuged and washed twice with DPBS. Cells are re-suspended in 200 μL DPBS for FACS analysis.

T3 sequence (Q9NZQ7 19-239 limits assumed): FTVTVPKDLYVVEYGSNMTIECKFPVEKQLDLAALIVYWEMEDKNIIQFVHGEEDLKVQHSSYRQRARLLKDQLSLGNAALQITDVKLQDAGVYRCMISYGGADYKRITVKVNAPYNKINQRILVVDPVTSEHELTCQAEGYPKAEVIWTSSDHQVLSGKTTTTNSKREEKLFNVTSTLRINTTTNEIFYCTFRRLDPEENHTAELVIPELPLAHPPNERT
T1 sequence (Q9NZQ7 19-238 limits assumed): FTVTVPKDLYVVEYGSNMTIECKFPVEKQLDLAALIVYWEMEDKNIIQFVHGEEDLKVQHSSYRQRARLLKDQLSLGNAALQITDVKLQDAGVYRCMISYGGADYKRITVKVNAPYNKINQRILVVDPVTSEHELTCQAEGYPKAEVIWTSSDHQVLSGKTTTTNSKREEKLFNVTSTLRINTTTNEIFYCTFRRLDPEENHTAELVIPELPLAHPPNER
T4 sequence (Q9NZQ7 19-290 limits assumed): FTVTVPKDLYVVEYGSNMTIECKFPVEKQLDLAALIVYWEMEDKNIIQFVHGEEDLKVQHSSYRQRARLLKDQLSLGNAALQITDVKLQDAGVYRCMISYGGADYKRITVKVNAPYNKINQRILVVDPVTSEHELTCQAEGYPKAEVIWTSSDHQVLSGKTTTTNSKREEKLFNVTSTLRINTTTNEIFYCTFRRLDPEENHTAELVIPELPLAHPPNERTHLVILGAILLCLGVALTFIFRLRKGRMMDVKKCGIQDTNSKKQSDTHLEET

IC50 [1]: 0.95 nM | IC50 [2]: 2.4 nM | Kd [3]: 0.122 nM | koff [3]: 0.000184 s⁻¹ | kon [3]: 1.51e+06 M⁻¹ s⁻¹ | Kd [4]: 0.082 nM | koff [4]: 0.000114 s⁻¹ | kon [4]: 1.4e+06 M⁻¹ s⁻¹ | EC50 [5]: 0.11 nM | EC50 [6]: 0.14 nM
B1: LY3300054 (antibody, human IgG1, lambda, V domains shown)
VH: QVQLVQSGAEVKKPGSSVKVSCKASGGTFSSYAISWVRQAPGQGLEWMGGIIPIFGTANYAQKFQGRVTITADKSTSTAYMELSSLRSEDTAVYYCARSPDYSPYYYYGMDVWGQGTTVTVSS
VL: QSVLTQPPSASGTPGQRVTISCSGSSSNIGSNTVNWYQQLPGTAPKLLIYGNSNRPSGVPDRFSGSKSGTSASLAISGLQSEDEADYYCQSYDSSLSGSVFGGGIKLTVLG
notes: Biotinylated antibody was used in the flow cytometry assay; also called anti-PD-L1 antibody
